Experiments:
Assay in all cases: binding to purified HLA
Conditions in all cases: chains peptide; modification not given
DRB4*0101 = molecular target: DRB4*0101
DRB1*0405 = molecular target: DRB1*0405
DRB1*0802 = molecular target: DRB1*0802
DRB1*1302 = molecular target: DRB1*1302
DRB1*0101 = molecular target: DRB1*0101
DRB5*0101 = molecular target: DRB5*0101
DRB1*0401 = molecular target: DRB1*0401
DRB1*0901 = molecular target: DRB1*0901
DRB1*0301 = molecular target: DRB1*0301
DRB1*0404 = molecular target: DRB1*0404
DRB1*0701 = molecular target: DRB1*0701
DRB1*1501 = molecular target: DRB1*1501
DRB1*1101 = molecular target: DRB1*1101

B1: SEQ ID NO: 3 (peptide)
chain: AKFVAAWTLKAAA
Work on B1 yielded an IC50 (DRB4*0101) of 447 nM, an IC50 (DRB1*0405) of 32 nM and an IC50 (DRB1*0802) of 9.5 nM. For the same binder, the IC50 (DRB1*1302) was 367 nM, the IC50 (DRB1*0101) was 4 nM and the IC50 (DRB5*0101) was 19 nM. It also gave an IC50 (DRB1*0401) of 1.4 nM, an IC50 (DRB1*0901) of 50 nM and an IC50 (DRB1*0301) of 289 nM. It also gave an IC50 (DRB1*0404) of 0.79 nM, an IC50 (DRB1*0701) of 97 nM and an IC50 (DRB1*1501) of 37 nM. It also gave an IC50 (DRB1*1101) of 9.1 nM.
